Experiments:
[1] = molecular target: PHF-tau (human) (UniProt P10636); assay: competition ELISA on PHF-tau captured by polyclonal anti-tau; biotinylated AT8, unlabeled competitor AT120 at 10 ug/ml
[2] = molecular target: PHF-tau (human) (UniProt P10636); assay: competition ELISA on PHF-tau captured by polyclonal anti-tau; biotinylated AT8, unlabeled competitor AT8 at 10 ug/ml
[3] = molecular target: affinity-purified human normal tau (human) (UniProt P10636); assay: sandwich ELISA: AT120 coated, tau at 160 pg/ml spiked in tau-negative CSF, detection with biotinylated BT2 + HT7
[4] = molecular target: PHF-tau (human) (UniProt P10636); assay: as above
[5] = molecular target: PHF-tau (human) (UniProt P10636); assay: competition ELISA on PHF-tau captured by polyclonal anti-tau; biotinylated AT120, unlabeled competitor AT120 at 10 ug/ml
[6] = molecular target: affinity-purified human normal tau (human) (UniProt P10636); assay: sandwich ELISA: AT120 coated, tau at 40 pg/ml spiked in tau-negative CSF, detection with biotinylated BT2 + HT7
[7] = molecular target: PHF-tau (human) (UniProt P10636); assay: as above
[8] = molecular target: affinity-purified human normal tau (human) (UniProt P10636); assay: sandwich ELISA: AT120 coated, tau at 20 pg/ml spiked in tau-negative CSF, detection with biotinylated BT2 + HT7
[9] = molecular target: PHF-tau (human) (UniProt P10636); assay: as above
[10] = molecular target: affinity-purified human normal tau (human) (UniProt P10636); assay: sandwich ELISA: AT120 coated, tau at 10 pg/ml spiked in tau-negative CSF, detection with biotinylated BT2 + HT7
[11] = molecular target: PHF-tau (human) (UniProt P10636); assay: as above
[12] = molecular target: affinity-purified human normal tau (human) (UniProt P10636); assay: sandwich ELISA: AT120 coated, tau at 80 pg/ml spiked in tau-negative CSF, detection with biotinylated BT2 + HT7
[13] = molecular target: PHF-tau (human) (UniProt P10636); assay: as above
[14] = molecular target: affinity-purified human normal tau (human) (UniProt P10636); assay: sandwich ELISA: AT120 coated, tau at 0 pg/ml (blank), detection with biotinylated BT2 + HT7
[15] = molecular target: PHF-tau (human) (UniProt P10636); assay: as above
[16] = molecular target: PHF-tau (human) (UniProt P10636); assay: competition ELISA on PHF-tau captured by polyclonal anti-tau; biotinylated AT120, unlabeled competitor AT8 at 10 ug/ml
[17] = molecular target: PHF-tau (human) (UniProt P10636); assay: competition ELISA on PHF-tau captured by polyclonal anti-tau; biotinylated BT2, unlabeled competitor AT120 at 10 ug/ml
[18] = molecular target: PHF-tau (human) (UniProt P10636); assay: competition ELISA on PHF-tau captured by polyclonal anti-tau; biotinylated BT2, unlabeled competitor BT2 at 10 ug/ml

monoclonal antibody AT8
Absorbance [1]: 0.372 absorbance
Absorbance [2]: 0.001 absorbance

monoclonal antibody AT120
absorbance (milliabsorbance units) (milliabsorbance units) [3]: 1610
absorbance (milliabsorbance units) (milliabsorbance units) [4]: 1680
Absorbance [5]: 0.001 absorbance
absorbance (milliabsorbance units) (milliabsorbance units) [6]: 678
absorbance (milliabsorbance units) (milliabsorbance units) [7]: 566
absorbance (milliabsorbance units) (milliabsorbance units) [8]: 256
absorbance (milliabsorbance units) (milliabsorbance units) [9]: 257
absorbance (milliabsorbance units) (milliabsorbance units) [10]: 154
absorbance (milliabsorbance units) (milliabsorbance units) [11]: 143
absorbance (milliabsorbance units) (milliabsorbance units) [12]: 970
absorbance (milliabsorbance units) (milliabsorbance units) [13]: 901
absorbance (milliabsorbance units) (milliabsorbance units) [14]: 87
absorbance (milliabsorbance units) (milliabsorbance units) [15]: 92
Absorbance [16]: 0.476 absorbance

monoclonal antibody BT2
Absorbance [17]: 0.543 absorbance
Absorbance [18]: 0.054 absorbance

Source: patent publication US20030143760A1
